Measurements reported in IntAct's records for PubMed 21505417.

B1: Intraflagellar transport protein 25 (Chlamydomonas reinhardtii), B8LIX8 (parent)
chain: MKDYAREENGGLVVMASCSDERFPPENMLDGKDNTFWVTTGMFPQEFVLRLESCIRVSKITTLSLNVRKLAVEKCDQDKPDQFEKVFEVELANRGDRLQTEVHQVNIRAKYLKFILLQGHGEFATVNRVSVVGGDDDGGGYDEPGGGYGSMQRQPSMGYGGGGGSAATGFAADPGNAAAGGGGGFEDEF
partner: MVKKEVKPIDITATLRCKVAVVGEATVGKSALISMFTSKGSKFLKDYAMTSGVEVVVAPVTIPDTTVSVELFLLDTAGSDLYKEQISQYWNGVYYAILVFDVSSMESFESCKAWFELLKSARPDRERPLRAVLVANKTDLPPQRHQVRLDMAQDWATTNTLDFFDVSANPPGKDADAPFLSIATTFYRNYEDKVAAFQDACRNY

Variants of: B1
Conditions: with ift27_chlre IFT27, A8HN58

Variant | effect of a mutation on the interaction
MKDYAREENGGLVVMASCSDERFPPENMLDGKDNTFWVTTGMFPQEFVLRLESCIRVSKITTLSLNVRKLAVEKCDQDKPDQFEKVFEVELANRGDRLQTEVHQVNIRAKYLKFILLQGHGEFAEVNRVSVVGGDDDGGGYDEPGGGYGSMQRQPSMGYGGGGGSAATGFAADPGNAAAGGGGGFEDEF | disrupting interaction
MKDYAREENGGLVVMASCSDERFPPENMLDGKDNTFWRTTGMFPQEFVLRLESCIRVSKITTLSLNVRKLAVEKCDQDKPDQFEKVFEVELANRGDRLQTEVHQVNIRAKYLKFILLQGHGEFATVNRVSVVGGDDDGGGYDEPGGGYGSMQRQPSMGYGGGGGSAATGFAADPGNAAAGGGGGFEDEF | disrupting interaction
MKDYAREENGGLVVMASCSDERFPPENMLDGKDNTFWVTRGMFPQEFVLRLESCIRVSKITTLSLNVRKLAVEKCDQDKPDQFEKVFEVELANRGDRLQTEVHQVNIRAKYLKFILLQGHGEFATVNRVSVVGGDDDGGGYDEPGGGYGSMQRQPSMGYGGGGGSAATGFAADPGNAAAGGGGGFEDEF | disrupting interaction
